Source: publication PMC2788424, “The 3′-Phosphoadenosine 5′-Phosphosulfate Transporters, PAPST1 and 2, Contribute to the Maintenance and Differentiation of Mouse Embryonic Stem Cells” (PLoS ONE, 2009)

B1: PAPST1 (Mus musculus) (protein)
chain: MDARWWAVVVLATLPSLGAGGESPEAPPQSWTQLWLFRFLLNVAGYASFMVPGYLLVQYLRRKNYLETGRGLCFPLVKACVFGNEPKAPDEVLLAPRTETAESTPSWQVLKLVFCASGLQVSYLTWGILQERVMTGSYGATATSPGEHFTDSQFLVLMNRVLALVVAGLYCVLRKQPRHGAPMYRYSFASLSNVLSSWCQYEALKFVSFPTQVLAKASKVIPVMMMGKLVSRRSYEHWEYLTAGLISIGVSMFLLSSGPEPRSSPATTLSGLVLLAGYIAFDSFTSNWQDALFAYKMSSVQMMFGVNLFSCLFTVGSLLEQGALLEGARFMGRHSEFALHALLLSICSAFGQLFIFYTIGQFGAAVFTIIMTLRQAIAILLSCLLYGHTVTVVGGLGVAVVFTALLLRVYARGRKQRGKKAVPTEPPVQKV
B2: PAPST2 (Mus musculus) (protein)
chain: MDLKFNNSRKYVSISVPSKTQAMSPHIKSVEDVVVLGVNLSKFSKLTQFLICVAGVFVFYLIYGYLQELIFSVEGFKPYGWYLTLVQFAFYSVFGLIELQLTQDRRRRIPGKTYMLIAFLTVGTMGLSNTSLGYLNYPTQVIFKCCKLIPVMLGGVFIQGKRYNLADVSAAVCMSLGLIWFTLADSTIAPNFNLTGVMLISLALCADAVIGNVQEKAMKLHNASNSEMVLYSYSIGFVYILLGLSCTSGLGPAVAFCSKNPVGTYGYAFLFSLTGYFGISFVLALIKIFGALLAVTVTTGRKAMTVVLSFLFFAKPFTFQYIWSGLLVVLGIFLNVYSKNMDKIRLPSVYNMIKKAMDMKKSRTLAQTV

Substrate: Nc1ncnc2c1ncn2[C@@H]1O[C@H](COP(=O)(O)OS(=O)(=O)O)[C@@H](OP(=O)(O)O)[C@H]1O
Assay: cells, lysate or membranes
Assay type: biochemical, Mus musculus
Conditions: labelled compound, 20 mM Tris-HCl pH 7.5, 0.25 M sucrose, 5 mM MgCl2, 1 mM MnCl2, 10 mM 2-mercaptoethanol, 32°C, 5 min

Protein	Km
B1	1.54 µM
B2	1.49 µM
